Source: patent US20210214461A1
Changes are numbered by the printed parent chain.

B1: scFv 903 (scFv)
scFv: EIVMTQSPSTLSASVGDRVIITCQASEIIHSWLAWYQQKPGKAPKLLIYLASTLASGVPSRFSGSGSGAEFTLTISSLQPDDFATYYCQNVYLASTNGANFGQGTKLTVLGGGGGSGGGGSGGGGSGGGGSEVQLVESGGGLVQPGGSLRLSCTASGFSLTDYYYMTWVRQAPGKGLEWVGFIDPDDDPYYATWAKGRFTISRDTSKNTVYLQMNSLRAEDTAVYYCAGGDHNSGWGLDIWGQGTLVTVSS
B2: scFv 961 (scFv)
scFv: B1 scFv with L142S, V224T, L246T
B3: scFv105 (scFv)
scFv: DIVMTQSPSSLSASVGDRVTLTCTASQSVSNDVVWYQQRPGKAPKLLIYSAFNRYTGVPSRFSGRGYGTDFTLTISSLQPEDVAVYYCQQDYNSPRTFGQGTKLEVKRGGGGSGGGGSGGGGSSGGGSQVQLVQSGAEVKKPGASVKVSCTASGYTFTHYGMNWVRQAPGKGLEWMGWINTYTGEPTYADKFKDRFTFSLETSASTVYMELTSLTSDDTAVYYCARERGDAMDYWGQGTLVTVSS
B4: scFv 791 (scFv)
scFv: MEIVMTQSPSTLSASLGDRVIITCQSSQSVYGNIWMAWYQQKSGKAPKLLIYQASKLASGVPSRFSGSGSGAEFSLTISSLQPDDFATYYCQGNFNTGDRYAFGQGTKLTVLGGGGGSGGGGSGGGGSGGGGSEVQLVESGGGLVQPGGSLRLSCTASGFTISRSYWICWVRQAPGKGLEWVACIYGDNDITPLYANWAKGRFPVSTDTSKNTVYLQMNSLRAEDTAVYYCARLGYADYAYDLWGQGTLVTVSS

Target: pre-existing anti-scFv903 antibodies in human serum H105 (human)
Assay: competition ADA bridging ELISA

signal change in competition ELISA (% reduction in OD) | Binder
-97% | B1
7% | B2
2% | B3
-97% | B4

Target: pre-existing anti-scFv903 antibodies in human serum H115 (human)
Assay: competition ADA bridging ELISA

signal change in competition ELISA (% reduction in OD) | Binder
-95% | B1
-31% | B2
-60% | B3
-95% | B4

Target: pre-existing anti-scFv903 antibodies in human serum H116 (human)
Assay: competition ADA bridging ELISA

signal change in competition ELISA (% reduction in OD) | Binder
-98% | B1
-33% | B2
-43% | B3
-97% | B4

Target: pre-existing anti-scFv903 antibodies in human serum H125 (human)
Assay: competition ADA bridging ELISA

signal change in competition ELISA (% reduction in OD) | Binder
-98% | B1
3% | B2
-55% | B3
-97% | B4

Target: pre-existing anti-scFv903 antibodies in human serum H14 (human)
Assay: competition ADA bridging ELISA

signal change in competition ELISA (% reduction in OD) | Binder
-97% | B1
-4% | B3
-96% | B4

Target: pre-existing anti-scFv903 antibodies in human serum H15 (human)
Assay: competition ADA bridging ELISA

signal change in competition ELISA (% reduction in OD) | Binder
-91% | B1
-69% | B3
-90% | B4

Target: pre-existing anti-scFv903 antibodies in human serum H19 (human)
Assay: competition ADA bridging ELISA

signal change in competition ELISA (% reduction in OD) | Binder
-90% | B1
-64% | B2
-73% | B3
-84% | B4

Target: pre-existing anti-scFv903 antibodies in human serum H20 (human)
Assay: competition ADA bridging ELISA

signal change in competition ELISA (% reduction in OD) | Binder
-92% | B1
-23% | B2
-19% | B3
-96% | B4

Target: pre-existing anti-scFv903 antibodies in human serum H21 (human)
Assay: competition ADA bridging ELISA

signal change in competition ELISA (% reduction in OD) | Binder
-85% | B1
-81% | B2
-3% | B3
-85% | B4

Target: pre-existing anti-scFv903 antibodies in human serum H26 (human)
Assay: competition ADA bridging ELISA

signal change in competition ELISA (% reduction in OD) | Binder
-92% | B1
0% | B2
-80% | B3
-97% | B4

Target: pre-existing anti-scFv903 antibodies in human serum H29 (human)
Assay: competition ADA bridging ELISA

signal change in competition ELISA (% reduction in OD) | Binder
-79% | B1
-22% | B2
-51% | B3
-79% | B4

Target: pre-existing anti-scFv903 antibodies in human serum H3 (human)
Assay: competition ADA bridging ELISA

signal change in competition ELISA (% reduction in OD) | Binder
-80% | B1
-2% | B2
-59% | B3
-85% | B4

Target: pre-existing anti-scFv903 antibodies in human serum H46 (human)
Assay: competition ADA bridging ELISA

signal change in competition ELISA (% reduction in OD) | Binder
-80% | B1
-40% | B2
-67% | B3
-77% | B4

Target: pre-existing anti-scFv903 antibodies in human serum H53 (human)
Assay: competition ADA bridging ELISA

signal change in competition ELISA (% reduction in OD) | Binder
-32% | B1
-31% | B2
-18% | B3
-35% | B4

Target: pre-existing anti-scFv903 antibodies in human serum H54 (human)
Assay: competition ADA bridging ELISA

signal change in competition ELISA (% reduction in OD) | Binder
-93% | B1
-69% | B2
-61% | B3
-92% | B4

Target: pre-existing anti-scFv903 antibodies in human serum H55 (human)
Assay: competition ADA bridging ELISA

signal change in competition ELISA (% reduction in OD) | Binder
-89% | B1
-15% | B2
-72% | B3
-96% | B4

Target: pre-existing anti-scFv903 antibodies in human serum H56 (human)
Assay: competition ADA bridging ELISA

signal change in competition ELISA (% reduction in OD) | Binder
-24% | B1
-24% | B2
-5% | B3
-15% | B4

Target: pre-existing anti-scFv903 antibodies in human serum H59 (human)
Assay: competition ADA bridging ELISA

signal change in competition ELISA (% reduction in OD) | Binder
-97% | B1
-67% | B2
-94% | B3
-96% | B4

Target: pre-existing anti-scFv903 antibodies in human serum H60 (human)
Assay: competition ADA bridging ELISA

signal change in competition ELISA (% reduction in OD) | Binder
-96% | B1
-1% | B2
-11% | B3
-95% | B4

Target: pre-existing anti-scFv903 antibodies in human serum H64 (human)
Assay: competition ADA bridging ELISA

signal change in competition ELISA (% reduction in OD) | Binder
-97% | B1
-14% | B2
-55% | B3
-96% | B4

Target: pre-existing anti-scFv903 antibodies in human serum H66 (human)
Assay: competition ADA bridging ELISA

signal change in competition ELISA (% reduction in OD) | Binder
-97% | B1
-3% | B3
-96% | B4

Target: pre-existing anti-scFv903 antibodies in human serum H69 (human)
Assay: competition ADA bridging ELISA

signal change in competition ELISA (% reduction in OD) | Binder
-92% | B1
-6% | B2
-88% | B3
-75% | B4

Target: pre-existing anti-scFv903 antibodies in human serum H79 (human)
Assay: competition ADA bridging ELISA

signal change in competition ELISA (% reduction in OD) | Binder
-97% | B1
-74% | B2
-41% | B3
-97% | B4

Target: pre-existing anti-scFv903 antibodies in human serum H8 (human)
Assay: competition ADA bridging ELISA

signal change in competition ELISA (% reduction in OD) | Binder
-87% | B1
-89% | B2
-23% | B3
-91% | B4

Target: pre-existing anti-scFv903 antibodies in human serum H80 (human)
Assay: competition ADA bridging ELISA

signal change in competition ELISA (% reduction in OD) | Binder
-87% | B1
-55% | B2
-51% | B3
-85% | B4

Target: pre-existing anti-scFv903 antibodies in human serum H86 (human)
Assay: competition ADA bridging ELISA

signal change in competition ELISA (% reduction in OD) | Binder
-86% | B1
-68% | B2
-87% | B4

Target: rabbit polyclonal Anti-scFv 903 IgG termed AB903-3 (rabbit)
Assay: confirmatory ADA bridging ELISA, pre-incubation with 10, 100 or 1 mcg/ml scFv 903

OD change upon pre-incubation | Binder
60 to 95% | B1
